Experiments:
Experiment in all cases: cell-based or functional assay
[1] = molecular target: human TSHR, wild type, expressed on CHO cells (human) (UniProt P16473)
[2] = molecular target: TSHR with Asp232 mutated to Alanine expressed on CHO cells (human) (UniProt P16473)
[3] = molecular target: wild type human TSHR (thyrotropin receptor) expressed on CHO cells (human) (UniProt P16473)

cyclic AMP; Exp 1; 5C9 0.01 µg/mL + M22 3 ng/mL [1]: 48.1 pmol/mL
cyclic AMP; Exp 1; 5C9 0.1 µg/mL + M22 3 ng/mL [1]: 6 pmol/mL
cyclic AMP; Exp 1; 5C9 1 µg/mL + M22 3 ng/mL [1]: 0.93 pmol/mL
cyclic AMP; Exp 1; 5C9 10 µg/mL + M22 3 ng/mL [1]: 0.36 pmol/mL
cyclic AMP; Exp 1; 5C9 100 µg/mL + M22 3 ng/mL [1]: 0.35 pmol/mL
cyclic AMP; Exp 1; 5C9 100 µg/mL only [1]: 0.35 pmol/mL
cyclic AMP; Exp 2; 5C9 0.001 µg/mL + M22 3 ng/mL [1]: 63.3 pmol/mL
cyclic AMP; Exp 2; 5C9 0.01 µg/mL + M22 3 ng/mL [1]: 57.3 pmol/mL
cyclic AMP; Exp 2; 5C9 0.1 µg/mL + M22 3 ng/mL [1]: 4.17 pmol/mL
cyclic AMP; Exp 2; 5C9 10 µg/mL + M22 3 ng/mL [1]: 0.14 pmol/mL
cyclic AMP; Exp 2; 5C9 100 µg/mL only [1]: 0.69 pmol/mL
cyclic AMP; Exp 2; 5C9 + M22 3 ng/mL [1]: 2.54 pmol/mL
cyclic AMP; Exp 3; 5C9 0.001 µg/mL + M22 0.3 ng/mL [1]: 13.3 pmol/mL
cyclic AMP; Exp 3; 5C9 0.01 µg/mL + M22 0.3 ng/mL [1]: 13.1 pmol/mL
cyclic AMP; Exp 3; 5C9 0.1 µg/mL + M22 0.3 ng/mL [1]: 1.43 pmol/mL
cyclic AMP; Exp 3; 5C9 1 µg/mL + M22 0.3 ng/mL [1]: 0.02 pmol/mL
cyclic AMP; Exp 3; 5C9 10 µg/mL + M22 0.3 ng/mL [1]: 0.2 pmol/mL
cyclic AMP; Exp 3; 5C9 100 µg/mL + M22 0.3 ng/mL [1]: 0.05 pmol/mL
cyclic AMP; Exp 3; 5C9 100 µg/mL only [1]: 0.58 pmol/mL
cyclic AMP; Exp 4; 5C9 0.001 µg/mL + M22 0.3 ng/mL [1]: 33.1 pmol/mL
cyclic AMP; Exp 4; 5C9 0.01 µg/mL + M22 0.3 ng/mL [1]: 31.5 pmol/mL
cyclic AMP; Exp 4; 5C9 0.1 µg/mL + M22 0.3 ng/mL [1]: 6 pmol/mL
cyclic AMP; Exp 4; 5C9 1 µg/mL + M22 0.3 ng/mL [1]: 0.21 pmol/mL
cyclic AMP; Exp 4; 5C9 10 µg/mL + M22 0.3 ng/mL [1]: 0.4 pmol/mL
cyclic AMP; Exp 4; 5C9 100 µg/mL + M22 0.3 ng/mL [1]: 0.22 pmol/mL
cyclic AMP; Exp 4; 5C9 100 µg/mL only [1]: 0.12 pmol/mL
Cyclic AMP produced; 5C9 0.01 µg/mL + TSH (fmol/cell well) [2]: 15300
Cyclic AMP produced; 5C9 0.1 µg/mL + TSH (fmol/cell well) [2]: 6560
Cyclic AMP produced; 5C9 1.0 µg/mL + TSH (fmol/cell well) [2]: 1880
Cyclic AMP produced; 5C9 10 µg/mL + TSH (fmol/cell well) [2]: 710
Cyclic AMP produced; 5C9 100 µg/mL + TSH (fmol/cell well) [2]: 55
Cyclic AMP produced; 5C9 100 µg/mL only (fmol/cell well) [2]: 99
Mutated/wild type (%); 5C9 0.01 µg/mL + TSH [2]: 87%
Mutated/wild type (%); 5C9 0.1 µg/mL + TSH [2]: 89%
Mutated/wild type (%); 5C9 1.0 µg/mL + TSH [2]: 176%
Mutated/wild type (%); 5C9 10 µg/mL + TSH [2]: 89%
Mutated/wild type (%); 5C9 100 µg/mL + TSH [2]: 33%
Mutated/wild type (%); 5C9 100 µg/mL only [2]: 19%
Cyclic AMP produced; 5C9 0.01 µg/mL + TSH (fmol/cell well) [3]: 17600
Cyclic AMP produced; 5C9 0.1 µg/mL + TSH (fmol/cell well) [3]: 7330
Cyclic AMP produced; 5C9 1.0 µg/mL + TSH (fmol/cell well) [3]: 1070
Cyclic AMP produced; 5C9 10 µg/mL + TSH (fmol/cell well) [3]: 794
Cyclic AMP produced; 5C9 100 µg/mL + TSH (fmol/cell well) [3]: 166
Cyclic AMP produced; 5C9 100 µg/mL only (fmol/cell well) [3]: 522
B1: 5C9 IgG (human monoclonal autoantibody to the TSHR) (antibody, from another filing, V domains shown)
VH: EVQLVESGGGLIQPGGSLRLSCAASGFTVSSNYMSWVRQAPGKGLEWVSVTYSGGSTSYADSVKGRFTISRDNSKNTLYLQMNSLRAEDTAVYYCARGGRYCSSISCYARSGCDYWGQGTLVTVSS
VL: AIQMTQSPSSLSASVGDRVTITCRASQSISNYLNWYQQKPGKAPKLLIYAASSLQSGVPSRFSGSGSGTDFTLTISSLQPEDFATYYCQQSYSSPSTTFGQGTKLEIK

From patent publication US8840891 (RSR, dated 2014)
